These are literature values, as cited in patent US20160296600A1, “Relaxin Prodrugs” (ASCENDIS PHARMA RELAXIN DIVISION A/S, priority 2013, published 2016).

The conditions of this data set: humans, intravenous administration.

With “Relaxin: Mature human relaxin, hormonal peptide of approximately 6000 daltons; A-chain SEQ ID NO:1, B-chain SEQ ID NO:2”, the half-life result was “less than 10 minutes”.
